Laboratory results as given in patent publication US20120213809A1.

Tests used:
[1] = target: CCR7 on T2 hybridoma cells; assay: cell-based or functional assay
[2] = target: CP-MVP recombinant vaults (rat MVP generated in Sf9 cells) (rat) (UniProt Q62667); assay: densitometry of Coomassie stained SDS-PAGE gels of purified vault complexes
Sequence of UniProt Q62667 (Q62667 2-861 limits assumed): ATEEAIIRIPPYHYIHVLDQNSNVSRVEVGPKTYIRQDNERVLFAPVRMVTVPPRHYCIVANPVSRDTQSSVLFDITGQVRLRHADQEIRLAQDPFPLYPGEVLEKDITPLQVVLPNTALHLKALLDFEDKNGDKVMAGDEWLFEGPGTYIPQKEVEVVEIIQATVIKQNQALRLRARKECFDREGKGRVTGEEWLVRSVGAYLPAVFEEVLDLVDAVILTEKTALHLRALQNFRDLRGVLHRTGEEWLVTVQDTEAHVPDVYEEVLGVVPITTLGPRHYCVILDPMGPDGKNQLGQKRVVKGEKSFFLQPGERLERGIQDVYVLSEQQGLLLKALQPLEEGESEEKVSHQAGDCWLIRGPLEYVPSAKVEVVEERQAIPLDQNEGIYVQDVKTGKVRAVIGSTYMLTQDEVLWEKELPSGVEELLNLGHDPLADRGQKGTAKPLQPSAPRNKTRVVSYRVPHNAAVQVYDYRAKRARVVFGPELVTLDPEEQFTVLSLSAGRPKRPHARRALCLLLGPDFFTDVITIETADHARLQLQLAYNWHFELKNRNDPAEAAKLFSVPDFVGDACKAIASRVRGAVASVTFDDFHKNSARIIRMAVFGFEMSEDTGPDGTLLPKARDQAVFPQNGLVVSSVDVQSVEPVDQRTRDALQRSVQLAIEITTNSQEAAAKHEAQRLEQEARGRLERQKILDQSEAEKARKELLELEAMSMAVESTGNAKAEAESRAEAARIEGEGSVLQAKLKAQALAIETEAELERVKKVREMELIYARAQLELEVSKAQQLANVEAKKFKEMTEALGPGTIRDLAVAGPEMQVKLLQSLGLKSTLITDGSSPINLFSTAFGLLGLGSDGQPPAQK

Sequence of CCL-21 vault complex (CP-MVP vaults with packaged mouse CCL-21-mCherry-mINT) (chain): as the sequence (Q62667 2-861 limits assumed) above
Sequence of CCL-21 vault complex (CP-MVP vaults with packaged mouse CCL-21-mCherry-mINT) (chain, part): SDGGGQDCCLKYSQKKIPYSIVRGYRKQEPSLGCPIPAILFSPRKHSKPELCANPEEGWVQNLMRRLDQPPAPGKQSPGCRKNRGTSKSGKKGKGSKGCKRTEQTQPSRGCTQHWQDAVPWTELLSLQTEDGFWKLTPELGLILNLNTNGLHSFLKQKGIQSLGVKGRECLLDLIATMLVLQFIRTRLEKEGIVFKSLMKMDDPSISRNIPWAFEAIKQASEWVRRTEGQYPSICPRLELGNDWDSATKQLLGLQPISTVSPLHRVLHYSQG

Row | Substance | % migration of T2 cells (dual-chamber chemotaxis assay) [1] [%] | molecules of CCL-21-mINT protein per vault complex (molecules per vault complex) [2]
1 | CCL-21 vault complex (CP-MVP vaults with packaged mouse CCL-21-mCherry-mINT) | > 7.5 | –
2 | recombinant CCL-21 (R&D Systems) (ligand) | < 2.5 | –
3 | mouse CCL-21-mCherry-mINT fusion protein | – | 20 to 30
